Reference: patent US10487337B2, “Methods for monocot plant improvement” (Agresearch Limited, priority 2014, dated 2019)

Tests used:
ryegrass plants = test: Root biomass analysis of grass transformants; format: in vivo; details: root growth beyond the grow bag, approximately 6 weeks
Protocol: (§1) An equal number (typically 4-10) of tillers were taken from WT and ryegrass plants transformed with Arabidopsis PPD under one of three root promoters. Tillers were planted into plastic grow bags containing potting mix and pruned to be of equal height. […] The increase in root biomass was quantified removing the attached above ground portion (leaves and shoots) and drying the roots at 65° C. for 48 hr then weighing the dry weights (Tables 3 and 4)
as §1, with “a constitutive promoter.” for “one of three root promoters.”, “(Table 5).” for “(Tables 3 and 4)”

BZR1 = molecular target: T1, BZR1 (Arabidopsis thaliana, UniProt Q8S307); test: Yeast two hybrid (Y2H) interaction with BZR1; format: binding
T1 construct: expressed in transfected cells; host or cells: yeast strain MaV203
T1 sequence (Q8S307 with tags, fused parts or gaps): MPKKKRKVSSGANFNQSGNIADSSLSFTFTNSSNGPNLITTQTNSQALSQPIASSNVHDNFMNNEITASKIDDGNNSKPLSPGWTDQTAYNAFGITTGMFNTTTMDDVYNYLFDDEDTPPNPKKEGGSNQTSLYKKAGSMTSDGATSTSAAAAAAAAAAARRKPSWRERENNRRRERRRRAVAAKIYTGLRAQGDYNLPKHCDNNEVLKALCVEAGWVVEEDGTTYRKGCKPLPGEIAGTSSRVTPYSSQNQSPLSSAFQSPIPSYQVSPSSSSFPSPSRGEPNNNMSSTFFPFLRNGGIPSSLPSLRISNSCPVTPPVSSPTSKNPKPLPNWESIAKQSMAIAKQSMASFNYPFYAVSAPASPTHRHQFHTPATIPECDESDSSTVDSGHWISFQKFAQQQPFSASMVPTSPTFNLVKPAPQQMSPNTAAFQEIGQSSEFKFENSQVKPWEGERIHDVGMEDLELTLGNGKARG
Excerpt: The constructs for Y2H and BiFC assays were generated as follows. Arabidopsis DNA sequences encoding the open reading frames for; At4g14713 (PPD1) and truncation and deletion derivatives of PPD1: PPD1; PPD1Δppd (N-terminal truncation of sequences encoding aa 1-61), PPD1Δtify, (internal deletion of sequences encoding aa 154-186), PPD1Δjas*(C-terminal truncation of sequences encoding aa 229-313) (FIG. 5), At4g28910 (NINJA), At1g15750 (TPL), At1g75080 (BZR1), a synthetic PUAS-35S promoter, and sequences encoding GAL4DBD and c-myc fusion proteins were synthesised and sequence verified by GeneArt. Most sequences were supplied as clones in pENTR221 ready for Gateway cloning into yeast and plant expression vectors. The exception, a promoter sequence for in planta transcription activation assays, incorporating 5′ Xho1 and 3′ Nco1 restriction enzyme sites, was supplied cloned in pMA-RQ. Plasmids for the transient LUC reporter assay: A synthetic promoter with 5×UAS GAL4 DNA binding sites upstream of a −105 bp CaMV35S promoter was cloned into the XhoI-NcoI sites within a dual luciferase construct pNWA62, which contains an intron-containing Firefly Luciferase gene (LUC) and 35Spro::Renilla Luciferase (REN) as an internal standard, to construct pAML7. […]

B1: PPD1: PEAPOD 1 protein of Arabidopsis thaliana, SEQ ID NO: 1 (protein, listed as Arabidopsis thaliana)
chain: MDVGVSPAKSILAKPLKLLTEEDISQLTREDCRKFLKDKGMRRPSWNKSQAIQQVLSLKALYEPGDDSGAGIFRKILVSQPVNPPRVTTTLIEPSNELEACGRVSYPEDNGACHRMDSPRSAEFSGGSGHFVSEKDGHKTTISPRSPAETSELVGQMTIFYSGKVNVYDGIPPEKARSIMHFAANPIDLPENGIFASSRMISKLISKEKMMELPQKGLEKANSSRDSGMEGQANRKVSLQRYREKRKDRKFSKAKKCPGVASSSLEMFLNCQPRMKAAYSQNLGCTGSPLHSQSPESQTKSPNLSVDLNSEGI
Ryegrass plants; constitutive promoter
  root biomass/growth/length/branching compared to WT plants: increase in root biomass/growth/length/branching
Ryegrass plants; root promoter
  root biomass/growth/length/branching compared to WT plants: increase in root biomass/growth/length/branching
BZR1
  interaction with BZR1: no direct interaction
